The target of the assay is plasma derived C3b (UniProt P01024). The assay can be described thus: cell-based or functional assay.
UniProt P01024, sequence (P01024 749-1663 limits assumed, chain 1 of 2): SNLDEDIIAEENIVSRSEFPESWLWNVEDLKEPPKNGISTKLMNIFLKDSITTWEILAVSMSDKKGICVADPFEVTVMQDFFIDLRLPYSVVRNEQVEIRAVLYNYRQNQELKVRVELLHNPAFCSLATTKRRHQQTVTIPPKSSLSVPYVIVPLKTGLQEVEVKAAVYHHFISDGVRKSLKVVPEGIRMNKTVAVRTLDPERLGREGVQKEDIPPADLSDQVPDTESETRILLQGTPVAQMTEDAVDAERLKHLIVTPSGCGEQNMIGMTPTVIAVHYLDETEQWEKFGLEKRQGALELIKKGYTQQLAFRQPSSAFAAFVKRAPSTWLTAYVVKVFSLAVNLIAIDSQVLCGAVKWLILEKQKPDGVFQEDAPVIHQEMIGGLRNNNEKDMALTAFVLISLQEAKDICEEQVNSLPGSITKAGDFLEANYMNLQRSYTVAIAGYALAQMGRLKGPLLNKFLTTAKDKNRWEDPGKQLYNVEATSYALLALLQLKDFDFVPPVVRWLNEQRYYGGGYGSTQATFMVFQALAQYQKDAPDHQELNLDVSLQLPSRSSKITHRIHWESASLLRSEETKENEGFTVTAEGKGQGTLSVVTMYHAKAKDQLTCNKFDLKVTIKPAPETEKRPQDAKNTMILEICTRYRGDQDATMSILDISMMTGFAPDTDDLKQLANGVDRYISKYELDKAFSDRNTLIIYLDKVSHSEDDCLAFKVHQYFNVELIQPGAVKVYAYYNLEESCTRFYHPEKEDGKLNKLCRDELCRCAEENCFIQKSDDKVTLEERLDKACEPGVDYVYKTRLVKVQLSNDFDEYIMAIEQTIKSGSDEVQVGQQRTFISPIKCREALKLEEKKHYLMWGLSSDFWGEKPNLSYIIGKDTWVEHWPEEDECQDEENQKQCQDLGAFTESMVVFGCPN
UniProt P01024, sequence (P01024 23-667 limits assumed, chain 2 of 2): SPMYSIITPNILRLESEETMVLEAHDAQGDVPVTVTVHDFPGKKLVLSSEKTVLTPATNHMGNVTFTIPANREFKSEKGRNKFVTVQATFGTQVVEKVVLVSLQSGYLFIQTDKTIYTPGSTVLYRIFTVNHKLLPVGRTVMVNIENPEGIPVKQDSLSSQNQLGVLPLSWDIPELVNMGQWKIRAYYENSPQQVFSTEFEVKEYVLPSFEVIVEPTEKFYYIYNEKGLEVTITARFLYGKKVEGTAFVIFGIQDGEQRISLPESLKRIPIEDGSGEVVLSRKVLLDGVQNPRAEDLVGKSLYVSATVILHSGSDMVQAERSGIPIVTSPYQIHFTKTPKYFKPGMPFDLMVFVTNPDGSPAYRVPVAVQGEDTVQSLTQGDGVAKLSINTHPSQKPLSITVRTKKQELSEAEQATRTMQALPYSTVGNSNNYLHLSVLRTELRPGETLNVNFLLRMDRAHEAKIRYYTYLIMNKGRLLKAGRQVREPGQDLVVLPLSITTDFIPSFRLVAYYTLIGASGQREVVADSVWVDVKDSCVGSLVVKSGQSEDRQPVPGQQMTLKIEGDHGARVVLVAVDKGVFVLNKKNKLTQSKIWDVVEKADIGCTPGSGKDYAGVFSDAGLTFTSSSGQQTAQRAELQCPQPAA

On to “FH^1-5∧18-20 (from UniProt P08603 19-322; P08603 1046-1231)”, for which the fluid phase Factor I cofactor activity: concentration of regulator at which the C3α′ band disappears (complete degradation of C3b), SDS-PAGE is 200 nM.

The values are drawn from patent publication US20230101835A1.
